How the values were obtained:
[1] = molecular target: huCD147-Strep (soluble extracellular domain of human CD147, Strep-tag II) (human); experiment: BLI; Octet Red96e; […] (20 μg/mL) […]; 25 mM HEPES, 150 mM NaCl pH 7.5, 0.04% Tween-20; global 1:1 model
[2] = molecular target: huCD147mt-Strep (glycosylation-deficient soluble extracellular domain of human CD147, Strep-tag II) (human); experiment: as above

| Substance | Kd [1] | Kd [2] |
| --- | --- | --- |
| [change] (soluble extracellular domain of H1N1 HA) (from UniProt P03452 18-528) (domain or fragment) | 700 nM | 500 nM |
| [change] (soluble extracellular domain of H9N2 HA) (domain or fragment) | 310 nM | 200 nM |
